Assay results taken from US20250263448A1.

Assays:
a native host protein [1] = experiment: Kd determination, method not stated
a native host protein [2] = experiment: Kd determination, method not stated; reference wild type PmSLP-1 (SEQ ID NO 2)

Substance “modified PmSLP-1 having SEQ. ID NO: 65 (V214D mutation)” has a Kd (a native host protein [1]) of under 2000 nM and a factor by which the Kd exceeds the Kd of the native non-modified PmSLP (a native host protein [2]) of over 500 fold.
“modified PmSLP-1 having SEQ. ID NO: 67 (E240A mutation)” was tested, and the Kd (a native host protein [1]) was under 2000 nM and the factor by which the Kd exceeds the Kd of the native non-modified PmSLP (a native host protein [2]) was over 500 fold.
“wild type PmSLP-1 protein (SEQ. ID NO: 2)” gave a Kd (a native host protein [1]) of 30 nM.
